Laboratory results taken from US20140255414A1 (PROBIODRUG, published 2014).
Square brackets hold non-standard residues; d marks the D form. pGlu = O=C1CC[C@@H](C(=O)O)N1; PEG = not defined here

How the values were obtained:
Aβ(pE11-18)-PEG peptide [1] = target: T1, Aβ(pE11-18)-PEG peptide (reading uncertain); test: ITC at 20 °C, peptide titrated into antibody eluted with KSCN gradient (KD=1/KA)
T1 construct: The PEG attachment is not described further
T1 peptide: [pGlu]VHHQKLV-{PEG}
Experimental: (§1) For the ITC experiment, the peptide Aβ(pE11-18)-PEG was used because the hydrophilic PEG group imparts hydrophilic properties and so it was possible to dissolve the peptide directly in ITC buffer. Former experiments with Aβ(pE11-20) could only be performed with 1-2% DMSO, due to the strong hydrophobicity of the peptide it was necessary to dissolve it with DMSO which could have an effect on the ITC binding properties. At first the antibody was dialyzed against ITC buffer (150 mM NaCl, 25 mM Na₂HPO₄, 25 mM KH₂PO₄, 1 mM EDTA, pH=7.1) over night at 4° C. The lyophilised peptide, stored at −20° C., was dissolved in identical ITC buffer pH=7.1 which was used for antibody dialysis. Both antibody and antigen must be in identical solutions, otherwise large heats of dilution will mask the desired observation. Before the ITC experiment, the concentration of antibody was determined by UV/VIS spectroscopy (see section 1.3.1). […] Furthermore the heat of reaction was determined which was only generated by dilution of the antigen through the titration into ITC buffer (pH=7.1). […]
(§2) To characterize the binding of anti Aβ11(pE) antibody at the Aβ(pE11-18)-PEG peptide the method of Isothermal Titration calorimetry (ITC) was used (see section 1.3.4). The antibody which was eluted from protein G column with KSCN-gradient (pH 7.0) and 0.1 M glycine-HCl (pH 2.7) was analyzed.

Aβ(pE11-18)-PEG peptide [2] = target: T1, Aβ(pE11-18)-PEG peptide; test: ITC at 20 °C, peptide titrated into antibody eluted with 0.1 M glycine-HCl pH 2.7 (KD=1/KA)
Experimental: as §1, §2

Aβ(pE11-20)-biotin = target: T2, Aβ(pE11-20)-biotin; test: ELISA: 200 ng/ml Aβ(pE11-20)-biotin on streptavidin plate, antibody 55-3500 pg/ml, detection with rabbit anti-mouse Ig's HRP, absorption 450/540 nm
T2 construct: Immobilized on streptavidin-coated microplates in the auto-Ig-ELISA
T2 peptide: [pGlu]VHHQKLVFF-biotin
Experimental: Immobilization of 200 ng/ml Aβ(pE11-20)-biotin at streptavidin coated microplate (2 h, at RT). Blocking with 200 μl ELISA-Blocker (−T) 1 h at RT and followed by wash cycle (3×300 μl/well wash buffer). Standard anti Aβ11(pE) antibody (clone 13) was diluted in ELISA-Blocker (+T) in radix division from 3500 pg/ml down to 55 pg/ml and incubated 2 h at 4° C. A wash cycle followed and detection with polyclonal rabbit anti-mouse Ig's HRP 1 h at 4° C. After wash cycle TMB/H₂O₂ were added, incubated 30 min at RT (dark) and enzyme reaction was stopped with 1 M H₂SO₄. Absorption was measured at 450/540 nm at TECAN Sunrise.

Aβ(pE11-18)-PEG peptide [3] = target: T1, Aβ(pE11-18)-PEG peptide; test: ITC at 20 °C, peptide titrated into antibody eluted with 0.1 M glycine-HCl pH 2.7
Experimental: For the ITC experiment, the peptide Aβ(pE11-18)-PEG was used because the hydrophilic PEG group imparts hydrophilic properties and so it was possible to dissolve the peptide directly in ITC buffer. Former experiments with Aβ(pE11-20) could only be performed with 1-2% DMSO, due to the strong hydrophobicity of the peptide it was necessary to dissolve it with DMSO which could have an effect on the ITC binding properties. At first the antibody was dialyzed against ITC buffer (150 mM NaCl, 25 mM Na₂HPO₄, 25 mM KH₂PO₄, 1 mM EDTA, pH=7.1) over night at 4° C. The lyophilised peptide, stored at −20° C., was dissolved in identical ITC buffer pH=7.1 which was used for antibody dialysis. Both antibody and antigen must be in identical solutions, otherwise large heats of dilution will mask the desired observation. Before the ITC experiment, the concentration of antibody was determined by UV/VIS spectroscopy (see section 1.3.1). At first the antibody with e.g. 5.13 μM (see Table 4) was added into the sample cell and the reference cell was filled with distilled water. Then the antigen was injected into the sample cell with e.g. 81.78 μM (see Table 4). The antigen should be generally in twofold excess to the antibody, bearing in mind that an antibody has two binding sites the antigen was in the cell at least in fourfold excess to the antibody. The 30 injections (1×2 μl and 29×10 μl) were made with a 4-min interval between subsequent injections. The measurement of heat of reaction was performed at 20° C. Furthermore the heat of reaction was determined which was only generated by dilution of the antigen through the titration into ITC buffer (pH=7.1). Therefore the antigen was injected into the sample cell filled with ITC buffer. […]
as §2

B1: monoclonal mouse anti Aβ11(pE) antibody Aβ 13-11-6 (clone 13), Deposit No. DSM ACC 3100 (antibody, V domains shown)
VH: QVQLQQPGTELVKPGASVKLSCKASGFTFTSYWMHWVRQRPGQGLEWIGEINPSNGRTNYNEKFKSKATLTVDKSSSTAYMQLSSLTSEDSEVYYCARGDLAWDWSAYWGQGTLVTVSA
VL: DIVMSQSPSSLAVSAGEKVTMSCKSSQSLFYSRTRKNYLAWYQQKPGQSPKLLIYWASTRESGVPDRFTGSGSGTDFTLTISSVQAEDLAVYYCKQSYNLWSFGGGTKLEIKR
notes: The KSCN-eluted and glycine-HCl-eluted preparations are the same molecule; also called pEVHH-59025 13-11-6; mAb mouse anti Aβ11(pE)
- Kd (Aβ(pE11-18)-PEG peptide [1]): 78.7 nM
- Kd (Aβ(pE11-18)-PEG peptide [2]): 105 nM
- binding result (Aβ(pE11-20)-biotin): binds
- -TΔS (Aβ(pE11-18)-PEG peptide [3]): -1.36 kcal/mol
- Ka (Aβ(pE11-18)-PEG peptide [3]): 9.5e+06 M⁻¹
- Stoichiometry (N) (Aβ(pE11-18)-PEG peptide [3]): 1.01
